B1: BBSome complex member BBS1 (Homo sapiens), Q8NFJ9 (parent)
chain: MAAASSSDSDACGAESNEANSKWLDAHYDPMANIHTFSACLALADLHGDGEYKLVVGDLGPGGQQPRLKVLKGPLVMTESPLPALPAAAATFLMEQHEPRTPALALASGPCVYVYKNLRPYFKFSLPQLPPNPLEQDLWNQAKEDRIDPLTLKEMLESIRETAEEPLSIQSLRFLQLELSEMEAFVNQHKSNSIKRQTVITTMTTLKKNLADEDAVSCLVLGTENKELLVLDPEAFTILAKMSLPSVPVFLEVSGQFDVEFRLAAACRNGNIYILRRDSKHPKYCIELSAQPVGLIRVHKVLVVGSTQDSLHGFTHKGKKLWTVQMPAAILTMNLLEQHSRGLQAVMAGLANGEVRIYRDKALLNVIHTPDAVTSLCFGRYGREDNTLIMTTRGGGLIIKILKRTAVFVEGGSEVGPPPAQAMKLNVPRKTRLYVDQTLREREAGTAMHRAFQTDLYLLRLRAARAYLQALESSLSPLSTTAREPLKLHAVVQGLGPTFKLTLHLQNTSTTRPVLGLLVCFLYNEALYSLPRAFFKVPLLVPGLNYPLETFVESLSNKGISDIIKVLVLREGQSAPLLSAHVNMPGSEGLAAA
partner: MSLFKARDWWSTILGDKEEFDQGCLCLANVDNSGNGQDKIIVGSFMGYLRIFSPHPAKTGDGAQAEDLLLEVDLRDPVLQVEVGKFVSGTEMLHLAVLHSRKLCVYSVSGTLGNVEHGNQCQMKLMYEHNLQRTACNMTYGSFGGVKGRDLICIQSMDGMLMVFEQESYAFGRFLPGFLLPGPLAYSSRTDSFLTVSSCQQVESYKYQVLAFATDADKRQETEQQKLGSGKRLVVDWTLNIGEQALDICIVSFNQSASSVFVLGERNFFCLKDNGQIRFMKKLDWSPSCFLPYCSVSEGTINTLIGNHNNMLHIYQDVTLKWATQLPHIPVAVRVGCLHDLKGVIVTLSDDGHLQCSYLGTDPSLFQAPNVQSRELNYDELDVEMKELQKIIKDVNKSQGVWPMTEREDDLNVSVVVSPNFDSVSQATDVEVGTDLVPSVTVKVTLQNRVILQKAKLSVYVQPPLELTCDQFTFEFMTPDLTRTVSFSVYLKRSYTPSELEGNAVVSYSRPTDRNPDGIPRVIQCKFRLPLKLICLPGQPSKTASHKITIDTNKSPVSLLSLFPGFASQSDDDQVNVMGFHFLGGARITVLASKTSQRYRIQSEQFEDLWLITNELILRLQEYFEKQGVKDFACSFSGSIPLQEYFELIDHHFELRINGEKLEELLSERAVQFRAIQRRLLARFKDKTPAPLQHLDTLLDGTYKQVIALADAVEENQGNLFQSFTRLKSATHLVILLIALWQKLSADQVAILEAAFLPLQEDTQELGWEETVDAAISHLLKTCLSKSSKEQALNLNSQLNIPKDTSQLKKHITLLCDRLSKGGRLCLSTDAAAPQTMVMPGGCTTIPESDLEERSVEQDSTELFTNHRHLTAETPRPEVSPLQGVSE

Variants of: B1
Settings: with pthb1_human BBS9, Q3SYG4

Row | effect of a mutation on the interaction | Variant
1 | disrupting interaction strength | MAAASSSDSDACGAESNEANSKWLDAHYDPMANIHTFSACLALADLHGDGEYKLVVGDLGPGGQQPRLKVLKGPLVMTESPLPALPAAAATFLMEQHEPRTPALALASGPCVYVYKNLRPYFKFSLPQLPPNPLEQDLWNQAKEDRIDPLTLKEMLESIRETAEEPLSIQSLRFLQLELSEMEAFVNQHKSNSIKRQTVITTMTTLKKNLADEDAVSCLVLGTENKELLVLDPEAFTILAKMSLPSVPVFLEVSGQFDVEFRLAAACRNGNIYILRRDSKHPKYCIELSAQPVGLIRVHKVLVVGSTQDSLHGFTHKGKKLWTVQMPAAILTMNLLEQHSRGLQAVMAGLANGEVRIYRDKALLNVIHTPDAVTSLCFGRYGREDNTLIMTTRGGGLIIKILKRTAVFVEGGSEVGPPPAQAMKLNVPRKTRLYVDQTLREREAGTAMHRAFQTDLYLLRLRAARAYLQALESSLSPLSTTAREPLKLHAVVQGLGPTFKLTLHLQNTSTTRPVLGLLVCFLYNEALYSTPRAFFKVPLLVPGLNYPLETFVESLSNKGISDIIKVLVLREGQSAPLLSAHVNMPGSEGLAAA [L530T]
2 | disrupting interaction strength | MAAASSSDSDACGAESNEANSKWLDAHYDPMANIHTFSACLALADLHGDGEYKLVVGDLGPGGQQPRLKVLKGPLVMTESPLPALPAAAATFLMEQHEPRTPALALASGPCVYVYKNLRPYFKFSLPQLPPNPLEQDLWNQAKEDRIDPLTLKEMLESIRETAEEPLSIQSLRFLQLELSEMEAFVNQHKSNSIKRQTVITTMTTLKKNLADEDAVSCLVLGTENKELLVLDPEAFTILAKMSLPSVPVFLEVSGQFDVEFRLAAACRNGNIYILRRDSKHPKYCIELSAQPVGLIRVHKVLVVGSTQDSLHGFTHKGKKLWTVQMPAAILTMNLLEQHSRGLQAVMAGLANGEVRIYRDKALLNVIHTPDAVTSLCFGRYGREDNTLIMTTRGGGLIIKILKRTAVFVEGGSEVGPPPAQAMKLNVPRKTRLYVDQTLREREAGTAMHRAFQTDLYLLRLRAARAYLQALESSLSPLSTTAREPLKLHAVVQGLGPTFKLTLHLQNTSTTRPVLGLLVCFLYNEALYSVPRAFFKVPLLVPGLNYPLETFVESLSNKGISDIIKVLVLREGQSAPLLSAHVNMPGSEGLAAA [L530V]
3 | with no effect | MAAASSSDSDACGAESNEANSKWLDAHYDPMANIHTFSACLALADLHGDGEYKLVVGDLGPGGQQPRLKVLKGPLVMTESPLPALPAAAATFLMEQHEPRTPALALASGPCVYVYKNLRPYFKFSLPQLPPNPLEQDLWNQAKEDRIDPLTLKEMLESIRETAEEPLSIQSLRFLQLELSEMEAFVNQHKSNSIKRQTVITTMTTLKKNLADEDAVSCLVLGTENKELLVLDPEAFTILAKMSLPSVPVFLEVSGQFDVEFRLAAACRNGNIYILRRDSKHPKYCIELSAQPVGLIRVHKVLVVGSTQDSLHGFTHKGKKLWTVQMPAAILTMNLLEQHSRGLQAVMAGLANGEVRIYRDKALLNVIHTPDAVTSLCFGRYGREDNTLIMTTRGGGLIIKILKRTAVFVEGGSEVGPPPAQAMKLNVPRKTRLYVDQTLREREAGTAMHRAFQTDLYLLRLRAARAYLQALESSLSPLSTTAREPLKLHAVVQGLGPTFKLTLHLQNTSTTRPVLGLLVCFLYNEALYSLKRAFFKVPLLVPGLNYPLETFVESLSNKGISDIIKVLVLREGQSAPLLSAHVNMPGSEGLAAA [P531K]
4 | with no effect | MAAASSSDSDACGAESNEANSKWLDAHYDPMANIHTFSACLALADLHGDGEYKLVVGDLGPGGQQPRLKVLKGPLVMTESPLPALPAAAATFLMEQHEPRTPALALASGPCVYVYKNLRPYFKFSLPQLPPNPLEQDLWNQAKEDRIDPLTLKEMLESIRETAEEPLSIQSLRFLQLELSEMEAFVNQHKSNSIKRQTVITTMTTLKKNLADEDAVSCLVLGTENKELLVLDPEAFTILAKMSLPSVPVFLEVSGQFDVEFRLAAACRNGNIYILRRDSKHPKYCIELSAQPVGLIRVHKVLVVGSTQDSLHGFTHKGKKLWTVQMPAAILTMNLLEQHSRGLQAVMAGLANGEVRIYRDKALLNVIHTPDAVTSLCFGRYGREDNTLIMTTRGGGLIIKILKRTAVFVEGGSEVGPPPAQAMKLNVPRKTRLYVDQTLREREAGTAMHRAFQTDLYLLRLRAARAYLQALESSLSPLSTTAREPLKLHAVVQGLGPTFKLTLHLQNTSTTRPVLGLLVCFLYNEALYSLARAFFKVPLLVPGLNYPLETFVESLSNKGISDIIKVLVLREGQSAPLLSAHVNMPGSEGLAAA [P531A]
5 | with no effect | MAAASSSDSDACGAESNEANSKWLDAHYDPMANIHTFSACLALADLHGDGEYKLVVGDLGPGGQQPRLKVLKGPLVMTESPLPALPAAAATFLMEQHEPRTPALALASGPCVYVYKNLRPYFKFSLPQLPPNPLEQDLWNQAKEDRIDPLTLKEMLESIRETAEEPLSIQSLRFLQLELSEMEAFVNQHKSNSIKRQTVITTMTTLKKNLADEDAVSCLVLGTENKELLVLDPEAFTILAKMSLPSVPVFLEVSGQFDVEFRLAAACRNGNIYILRRDSKHPKYCIELSAQPVGLIRVHKVLVVGSTQDSLHGFTHKGKKLWTVQMPAAILTMNLLEQHSRGLQAVMAGLANGEVRIYRDKALLNVIHTPDAVTSLCFGRYGREDNTLIMTTRGGGLIIKILKRTAVFVEGGSEVGPPPAQAMKLNVPRKTRLYVDQTLREREAGTAMHRAFQTDLYLLRLRAARAYLQALESSLSPLSTTAREPLKLHAVVQGLGPTFKLTLHLQNTSTTRPVLGLLVCFLYNEALYSLERAFFKVPLLVPGLNYPLETFVESLSNKGISDIIKVLVLREGQSAPLLSAHVNMPGSEGLAAA [P531E]

Reference: IntAct's records for PubMed 29039417
